From the supplement of paper PMC9112550, “Optimization of the antimicrobial peptide Bac7 by deep mutational scanning” (BMC Biology, 2022)

Test system: Escherichia coli TOP10
Test: shrunken log2 fold change of peptide-encoding DNA abundance (4.5 h post-induction vs induction); higher = less antimicrobial activity (less host growth inhibition)
Conditions: time post-induction: 4.5 h; library: site-saturation at positions 5, 18, 19, 20
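Further: peptides expressed intracellularly from a pBAD plasmid library in pooled LB shake-flask culture, induced with 0.3% L-arabinose, DNA abundance read by NGS, three biological replicates, DESeq2 with apeglm shrinkage.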

Sequence	shrunken log2 fold change
RRIRDRPPRLPRPRPRPKPWPRP	0.46
RRIRDRPPRLPRPRPRPKRAPRP	-0.0273
RRIRDRPPRLPRPRPRPKTDPRP	-0.314
RRIRDRPPRLPRPRPRPKVRPRP	0.00434
RRIRDRPPRLPRPRPRPKWIPRP	-0.0438
RRIRDRPPRLPRPRPRPLAIPRP	0.0447
RRIRDRPPRLPRPRPRPLAYPRP	0.0112
RRIRDRPPRLPRPRPRPLCDPRP	0.287
RRIRDRPPRLPRPRPRPLDHPRP	0.0841
RRIRDRPPRLPRPRPRPLDVPRP	-0.0992
RRIRDRPPRLPRPRPRPLEKPRP	0.0929
RRIRDRPPRLPRPRPRPLFAPRP	0.65
RRIRDRPPRLPRPRPRPLHFPRP	-0.0881
RRIRDRPPRLPRPRPRPLHRPRP	-0.375
RRIRDRPPRLPRPRPRPLHWPRP	-0.124
RRIRDRPPRLPRPRPRPLIDPRP	0.0319
RRIRDRPPRLPRPRPRPLIEPRP	0.573
RRIRDRPPRLPRPRPRPLLNPRP	0.124
RRIRDRPPRLPRPRPRPLMLPRP	0.116
RRIRDRPPRLPRPRPRPLNAPRP	-0.0226
RRIRDRPPRLPRPRPRPLNQPRP	-0.009
RRIRDRPPRLPRPRPRPLNWPRP	0.0327
RRIRDRPPRLPRPRPRPLNYPRP	-0.372
RRIRDRPPRLPRPRPRPLPLPRP	-0.0937
RRIRDRPPRLPRPRPRPLQGPRP	0.287

Sequence	shrunken log2 fold change
RRIRDRPPRLPRPRPRPLSIPRP	-0.0668
RRIRDRPPRLPRPRPRPLTNPRP	-0.19
RRIRDRPPRLPRPRPRPLVLPRP	0.176
RRIRDRPPRLPRPRPRPLYKPRP	0.00521
RRIRDRPPRLPRPRPRPMAPPRP	0.982
RRIRDRPPRLPRPRPRPMCCPRP	0.0249
RRIRDRPPRLPRPRPRPMCEPRP	-0.0122
RRIRDRPPRLPRPRPRPMCKPRP	0.108
RRIRDRPPRLPRPRPRPMCWPRP	0.564
RRIRDRPPRLPRPRPRPMDVPRP	-0.0846
RRIRDRPPRLPRPRPRPMDWPRP	0.0545
RRIRDRPPRLPRPRPRPMFRPRP	-0.114
RRIRDRPPRLPRPRPRPMGEPRP	-6.53e-05
RRIRDRPPRLPRPRPRPMHDPRP	0.122
RRIRDRPPRLPRPRPRPMHYPRP	0.0552
RRIRDRPPRLPRPRPRPMLDPRP	-0.0254
RRIRDRPPRLPRPRPRPMLHPRP	0.202
RRIRDRPPRLPRPRPRPMMEPRP	0.0314
RRIRDRPPRLPRPRPRPMMHPRP	0.937
RRIRDRPPRLPRPRPRPMNHPRP	-0.513
RRIRDRPPRLPRPRPRPMRLPRP	0.674
RRIRDRPPRLPRPRPRPMTPPRP	-0.0805
RRIRDRPPRLPRPRPRPNAQPRP	0.325
RRIRDRPPRLPRPRPRPNATPRP	0.0821
RRIRDRPPRLPRPRPRPNCAPRP	-0.0166

Sequence	shrunken log2 fold change
RRIRDRPPRLPRPRPRPNEGPRP	-0.000567
RRIRDRPPRLPRPRPRPNEQPRP	-0.0164
RRIRDRPPRLPRPRPRPNFGPRP	0.0243
RRIRDRPPRLPRPRPRPNFMPRP	-0.316
RRIRDRPPRLPRPRPRPNFSPRP	-0.0622
RRIRDRPPRLPRPRPRPNGIPRP	0.012
RRIRDRPPRLPRPRPRPNGKPRP	-0.181
RRIRDRPPRLPRPRPRPNHRPRP	-0.346
RRIRDRPPRLPRPRPRPNIGPRP	-0.0132
RRIRDRPPRLPRPRPRPNLIPRP	-0.15
RRIRDRPPRLPRPRPRPNLMPRP	0.0913
RRIRDRPPRLPRPRPRPNLPPRP	-0.0303
RRIRDRPPRLPRPRPRPNPHPRP	-0.247
RRIRDRPPRLPRPRPRPNPQPRP	-0.19
RRIRDRPPRLPRPRPRPNPYPRP	-0.558
RRIRDRPPRLPRPRPRPNQRPRP	-0.264
RRIRDRPPRLPRPRPRPNQVPRP	-0.329
RRIRDRPPRLPRPRPRPNRAPRP	0.563
RRIRDRPPRLPRPRPRPNRQPRP	-0.0252
RRIRDRPPRLPRPRPRPNRWPRP	0.0049
RRIRDRPPRLPRPRPRPNSIPRP	-0.211
RRIRDRPPRLPRPRPRPNSPPRP	-0.0573
RRIRDRPPRLPRPRPRPNWHPRP	0.144
RRIRDRPPRLPRPRPRPNWTPRP	0.0279
RRIRDRPPRLPRPRPRPNWYPRP	-0.476
